From patent US20260234247A1 (published 2026) come the findings set out here.

B1: LK-RB1-3 (antibody, human IgG4 S228P, kappa, V domains shown)
VH: QVQLQQPGAELVKPGTSVNLSCKASGYTFTSYWIHWVKQRPGRGLEWIGRINPYSSGTRYNEKFKNKATLTVDKPSSTAYMQLTSLTSEDSAVYYCARFDGAPDYFDFWGQGTTLTVSS
VL: DIVMTQSQKFMPTSVGDRVNVTCKASQNVGINVAWYQQKLGQSPKALIYSASYRYSGVPDRFTGSGSGTDFTLTINSVQSEDLADYFCQQYNNYPFTFGSGTKLEIKR
B2: LK-RB1-4 (antibody, human IgG4 S228P, kappa, V domains shown)
VH: QVQLQQPGAELVKPGASVKLPCKTSGYTFTSYWMHWVKQRPGRGLEWIGRIDPHYSGTKYNEKFKNKATMTVDTPSSTAYMQLSSLTSEDSAVYYCARFDGDPYYFDYWGPGTTLTVSS
VL: DIVMTQSQKFMSTSVGDRVSVTCKASQNVGTNVAWYKQKAGQSPKAVIYSASYRYSGVPDRFTGSGSGTDFTLSISNVQSEDLAEYFCQQYNNNPFTFGSGTKLEIKR
B3: LK-RB1-2 (antibody, human IgG4 S228P, kappa, V domains shown)
VH: QIQLVQSGPELKKPGETVKISCKASGYTFTTYGVSWVKQAPGKGLKWMGWINTYSGVSTYSDDFKGRFAFSLETSASTAYLQIINLKNEDAATYFCSRRRRTYDGYLSFDYWGQGTTLTVSS
VL: DIQMTQSPGSLSASVGETVTITCGASENIYGALNWFQRKPGKSPQLLIYGATNLADGMSSRFSGSGSGRQYSLQISSLRPDDVATYYCQNVLTTPWTFGGGTKVEIKR
B4: LK-RB1-26 (antibody, human IgG4 S228P, kappa, V domains shown)
VH: QVQLKESGPGLVAPSQSLSITCTVSGFSLTSYGVSWVRQPPGKGLEWLGIIWGDGSTNYHSALISRLSISKDNSKSQVFLKLNSLQTDDTATYYCAKPNWDYYAMDYWGQGTSVTVSS
VL: DIQMTQTTSSLSASLGDRVTISCRASQDISNFLNWYQQKPDGTFKLLISYTSTLHSGVPSRFSGSGSGTDYSLTISNLEQEDVATYFCQQGNTLPLTFGAGTKLALKR
B5: LK-RB1-30 (antibody, human IgG4 S228P, kappa, V domains shown)
VH: B4 VH with V37I, I50V, S56N, N99S
VL: VIQMTQTTSSLSASLGDRVTISCRASQDISNYVNWYQQRPDGTVKLLISYTSRLHSGVPSRFSGSGSGTDYSLTITNLEQEDIATYFCQQGITLPCTFGGGTKLEINR
B6: LK-RB1-29 (antibody, human IgG4 S228P, kappa, V domains shown)
VH: B4 VH with S17N, S19A, S31N, Y32S, P40S, S56N, A91G, M105L
VL: DIQMTQTASSLFASLGDRVTISCRASQDISNYLNWYQQKPDGSIKLLISYTSRLHSGVPSRFSGSGSGTDYSLSISNLEQEDIATYFCQQGISLPCTFGGGTKLEVNR
B7: LK-RB1-27 (antibody, human IgG4 S228P, kappa, V domains shown)
VH: QVQLQQSGPELVKPGASVRMSCKASGYTFTSHYIHWMKQRPGQGLEWIGWIYPGDGHTKYHEKFKDRATLTADTSSITAYMRLSSLTSEDSAIYYCVYYSDSWFPYWGQGTLVTVSA
VL: DIQMTQSPASLSVSVGETVTITCRASENIYSNLAWYQQKQGKSPHLLVYAATNLADGVPSRFSGSGSGTQYSLKINSLQSEDFGNYYCQHFWGSPWTFGGGTKLEIKR
B8: LK-RB1-55 (antibody, human IgG4 S228P, kappa, V domains shown)
VH: EVKLVESGGGLVQPGGSLKLSCAASGFTFSDYYMYWVRQTPEKRLEWVAYISNGGDITFYPDTVKGRFTISRDNARSTLYLQMSRLKSEDTAIYYCASATTEVGAMDHWGQGTSVTVSS
VL: DIVMTQSQKFMSTTVGDRVSITCKASQNVGTAVAWYQQKPGKSPKLLIYAASNRYTGVPDRFTGSGSGTDFTLTISNMQSEDLADYFCQQYSSYRTFGGGTNLEIKR
B9: LK-RB1-52 (antibody, human IgG4 S228P, kappa, V domains shown)
VH: B8 VH with T28I, F59Y, N74I, S77N, Y80F, S84G, I93M
VL: B8 VL with K42Q, S92R
B10: LK-RB1-57 (antibody, human IgG4 S228P, kappa, V domains shown)
VH: B8 VH with M83T
VL: B8 VL with M78V, N102S
B11: LK-RB1-48 (antibody, human IgG4 S228P, kappa, V domains shown)
VH: B8 VH with D56G, T58S, R76K, S77N, T101K, H108Y
VL: B8 VL with M11L, K42Q, L46I, A50S, N102K
B12: LK-RB1-47 (antibody, human IgG4 S228P, kappa, V domains shown)
VH: QIQLVQSGPELKKPGETVKISCKASGYTFTTYGMSWVKQAPGKGLKWMGWINTYSGVPTYTDDFKGRFAFSVETSASTAYLQINNLKNEDTATYFCARRERDFYGNIFFPYWGQGSLVTVSA
VL: DIQMTQTTSSLSASLGDRVTISCRASQDISNYLNWYQQKPDGTVKLLIYYTSRIHSGVPSRFSGSGSGTDFSLTISNLDQEDIATYFCQQGHTLPWTFGGGTKVEIKR
B13: LK-RB1-42 (antibody, human IgG4 S228P, kappa, V domains shown)
VH: QVQLQQPGAELVKPGTSVKLSCKASGYSFISYWVYWVKQRPGQGLEWIGMIHPNSGSTNFNEKFRYKATLTVDKSSSTAYIQLSSLTSEDSAVYYCGRSDDGYPYHAMDSWGQGTSVTVSS
VL: DIVMTQSQKFMSTSVGDRVSVTCKASQNVGTNVAWYQQKPGQSPKALIYSASYRFSGVPDRFTGSGSGTDFTLTIGNVQSEDLAEYFCHQYKNYPLTFGGGTKLEIKR
B14: LK-RB1-39 (antibody, human IgG4 S228P, kappa, V domains shown)
VH: EVQLQQSGAELVRPGASVKLSCTASGFNIKDDYVHWVNQRPEQGLEWIGWIDPENGDTGYASKFQDKATITADTSSNTAYLHLSSLTSEDTAVYYCTTTRWTGSYWGQGTTLTVSS
VL: QIVLTQSPAIMSASPGEKVTITCSASSSVNYMHWFQQKPGSSPKLWIYSTANLASGVPARFSGSGSGTSYSLTISRMEAEDAATYYCQQRSSYPPTWTFGGGTKLEIKR
B15: LK-RB1-34 (antibody, human IgG4 S228P, kappa, V domains shown)
VH: QVQLQQSGAELVKPGASVKLSCKASGYTFTEYTIHWVKQRSGQGLEWIGWFYPGSDSIKYNEKFKDKATLTADKSSSTVYMELSRLTSEDSAVYFCSRHEGPYFTSQYYFDYWGQGTTLTVSS
VL: DILLTQSPAILSVSPGERVSFSCRASRYIGTSIHWYQQRTNGSPRLLIKYASESISGIPSRFSGSGSGTDFTLSINSVESEDIADYYCQQSNTWPLTFGAGTKLELKR
B16: LK-RB1-53 (antibody, human IgG4 S228P, kappa)
heavy: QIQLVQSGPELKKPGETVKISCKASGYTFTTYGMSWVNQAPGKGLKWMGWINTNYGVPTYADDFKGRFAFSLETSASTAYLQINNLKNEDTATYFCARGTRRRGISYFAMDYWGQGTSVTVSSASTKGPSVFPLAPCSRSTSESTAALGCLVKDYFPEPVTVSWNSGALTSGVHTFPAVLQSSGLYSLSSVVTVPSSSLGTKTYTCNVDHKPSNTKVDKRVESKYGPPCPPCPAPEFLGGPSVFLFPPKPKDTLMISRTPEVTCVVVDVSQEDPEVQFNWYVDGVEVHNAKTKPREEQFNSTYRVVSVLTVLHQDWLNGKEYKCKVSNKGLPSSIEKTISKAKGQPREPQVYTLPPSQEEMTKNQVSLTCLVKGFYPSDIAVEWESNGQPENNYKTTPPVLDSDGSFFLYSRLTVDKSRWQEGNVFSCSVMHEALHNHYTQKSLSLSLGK
light: DIVMTQSQKFMSTTVGDRVSITCKASQNVGTAVAWYQQKPGQSPKLLIYSASNRYTGVPDRFTGSDSGTDFTLTINNIQSEDLADYFCQQYSSYPLTFATGTKLELKRTVAAPSVFIFPPSDEQLKSGTASVVCLLNNFYPREAKVQWKVDNALQSGNSQESVTEQDSKDSTYSLSSTLTLSKADYEKHKVYACEVTHQGLSSPVTKSFNRGEC
B17: LK-RB1-49 (antibody, human IgG4 S228P, kappa, V domains shown)
VH: QIQLVQSGPELKKPGETVKISCKASGYTFTTYGMSWVKQAPGKGLKWMGWINTYSGVPTYADDFKGRFAFSLETSGSTAYLQISNLKNEDTATYFCSRLFRSWDSYAMDYWGQGTSVTVSS
VL: DIVMTQSQKFMSATVGDRVSITCKASQNVGTAVAWYQQKPGQSPKLLIYSPSNRYTGVPDRFTGSGSGTHFTLTINNMQSEDLADYFCQQYSTYPLTFGAGTKLELNR
B18: LK-RB1-33 (antibody, human IgG4 S228P, kappa, V domains shown)
VH: QIQLVQSGPELKKPGDTVKISCKASGYTFTSYGMNWVKQAPGEGLKWMGWINTYSGVPTYGDDFKGRFAFSLETSASTAYLQINNLENEDTATYFCARRGRDSVVGHFDVWGTGTTVTVSS
VL: DIVMTQSHKFMSTSVGDRVSITCKASQDVNTAVAWYQQKPGQSPKLLIYWASTRHTGVPDRFTGSGSGTDFTLTISSVQAEDLALYYCQQHYTIPFTFGSGTRLEIKR

Numbering of substitutions follows the chain as printed.

The term koff denotes the rate constant with which the complex falls apart. Higher therefore signals a short-lived complex. In general, EC50 refers to the concentration needed to bring the measured effect to its halfway point. Lower therefore signals higher potency in that assay.

T1 sequence (Q8NHL6 24-458 limits assumed): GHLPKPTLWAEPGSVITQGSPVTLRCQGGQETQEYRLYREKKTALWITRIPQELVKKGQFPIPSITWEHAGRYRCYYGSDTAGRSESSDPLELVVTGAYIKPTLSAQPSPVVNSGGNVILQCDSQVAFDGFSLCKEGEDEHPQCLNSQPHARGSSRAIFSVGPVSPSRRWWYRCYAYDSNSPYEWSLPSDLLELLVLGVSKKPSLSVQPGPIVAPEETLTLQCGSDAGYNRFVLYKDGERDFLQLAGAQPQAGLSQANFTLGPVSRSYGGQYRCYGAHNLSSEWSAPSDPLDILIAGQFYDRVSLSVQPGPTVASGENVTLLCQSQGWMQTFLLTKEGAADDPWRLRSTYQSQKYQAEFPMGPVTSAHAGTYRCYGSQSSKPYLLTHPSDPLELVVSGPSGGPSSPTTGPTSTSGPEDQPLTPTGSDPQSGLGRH
T2 sequence (Q8NHL6 24-650): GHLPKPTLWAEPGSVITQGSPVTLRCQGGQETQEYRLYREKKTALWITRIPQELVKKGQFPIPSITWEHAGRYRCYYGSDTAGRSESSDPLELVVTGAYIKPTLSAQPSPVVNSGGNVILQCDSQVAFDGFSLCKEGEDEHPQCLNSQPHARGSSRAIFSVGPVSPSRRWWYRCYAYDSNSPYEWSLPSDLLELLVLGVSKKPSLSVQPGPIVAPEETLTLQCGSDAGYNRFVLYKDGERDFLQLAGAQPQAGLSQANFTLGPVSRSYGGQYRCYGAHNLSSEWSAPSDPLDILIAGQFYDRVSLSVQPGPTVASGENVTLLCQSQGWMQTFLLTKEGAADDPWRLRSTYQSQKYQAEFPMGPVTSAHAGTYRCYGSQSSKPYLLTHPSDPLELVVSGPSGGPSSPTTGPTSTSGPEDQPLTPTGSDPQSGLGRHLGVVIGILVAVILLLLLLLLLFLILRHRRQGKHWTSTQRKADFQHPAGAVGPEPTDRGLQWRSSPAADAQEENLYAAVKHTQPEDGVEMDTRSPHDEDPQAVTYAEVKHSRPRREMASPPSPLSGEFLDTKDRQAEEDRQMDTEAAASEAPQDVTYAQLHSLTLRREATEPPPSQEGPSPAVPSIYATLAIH
T3 sequence (Q8N423 22-597): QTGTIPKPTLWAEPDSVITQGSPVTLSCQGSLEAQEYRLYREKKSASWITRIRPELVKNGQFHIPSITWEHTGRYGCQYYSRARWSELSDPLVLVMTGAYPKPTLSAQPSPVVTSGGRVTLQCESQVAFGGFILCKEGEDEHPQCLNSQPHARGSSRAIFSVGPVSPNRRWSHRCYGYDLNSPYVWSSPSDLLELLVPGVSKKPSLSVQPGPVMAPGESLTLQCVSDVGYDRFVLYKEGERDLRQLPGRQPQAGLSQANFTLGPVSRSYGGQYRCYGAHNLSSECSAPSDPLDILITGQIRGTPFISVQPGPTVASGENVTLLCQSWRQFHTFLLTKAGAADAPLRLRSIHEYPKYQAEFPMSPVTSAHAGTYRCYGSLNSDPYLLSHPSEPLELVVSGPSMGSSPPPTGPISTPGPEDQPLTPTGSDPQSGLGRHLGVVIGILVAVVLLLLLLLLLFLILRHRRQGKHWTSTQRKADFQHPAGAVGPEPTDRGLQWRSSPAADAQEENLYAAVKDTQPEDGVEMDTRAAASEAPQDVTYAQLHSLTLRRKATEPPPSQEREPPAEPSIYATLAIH

One experiment concerns the target T1, human LILRB1 (human, UniProt Q8NHL6 24-458, limits assumed).
T1 construct: also called hLILRB1
Briefly: Octet off-rate ranking.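 Note: antibody dissociation rate constants against cynomolgus LILRB2 plus human LILRB1, LILRB2, LILRA1 and LILRA2, measured on an Octet instrument to rank binding.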 A general note: BLI is a label-free optical method that tracks binding on a fibre tip over time.
Excerpt: Binding affinity of anti-LILRB1 and anti-LILRB2 antibodies against human LILRB1, LILRB2, LILRA1, LILRA2 and cynomolgus LILRB2 was ranked by measuring dissociation rate constant (Kdis) using the Octet system.
B1 gave an off-rate (koff) of 5.24e-05 s⁻¹.
For the molecule B2, the koff worked out at 2.79e-05 s⁻¹.
In turn, B3 displayed a koff of 0.000118 s⁻¹.

Another experiment has as its target T2, human LILRB1 on CHOK1 cells (human, UniProt Q8NHL6 24-650).
T2 construct: whole, on cells; also called CHOK1-hLILRB1; CHOK1-LILRB1
As to the kind of experiment: FACS binding, CHOK1-hLILRB1 cells. For orientation: Flow cytometry measures light scatter and fluorescence of single cells or particles in a stream.
In turn, B4 displayed an EC50 of 0.51 nM.
Same read-out and setting: then B5, with 1.06 nM.
Still for that read-out and setting: the result for B6 reads 2.38 nM; that for B7, 0.71 nM.
B8 gave an EC50 of 1.68 nM.
On to B9, for which it took 1.8 nM to reach a half-maximal effect (EC50).
Take B10: the EC50 came out at 1.78 nM.
Same read-out and setting: then B11, with 1.06 nM; and B12, with 1.13 nM.
The same measure, in the same setting: the result for B13 reads 0.89 nM; that for B14, 0.77 nM; that for B15, 1.56 nM.
Still for that read-out and setting: the result for B16 reads 0.71 nM; that for B17, 2.05 nM; that for B18, 1.13 nM.

A further experiment has as its target T3, human LILRB2 on CHOK1 cells (human, UniProt Q8N423 22-597).
T3 construct: whole, on cells; also called CHOK1-hLILRB2; CHOK1-LILRB2
Briefly: FACS binding, CHOK1-hLILRB2 cells.
Take B4: the binding result is “no binding”.
For the molecule B5, the binding result was “no binding”.
On the same count and under the same terms, the result for B6 reads “no binding”.
Turning to B7, it took 4.95 nM to reach a half-maximal effect (EC50). This counts as single-digit nanomolar.
For the molecule B8, the binding result was “no binding”.
Same read-out and setting: then B9, with “no binding”; and B10, with “no binding”.
Consider B11, for which the binding result is on record as “no binding”.
Same read-out and setting: the result for B12 reads “no binding”; that for B13, “no binding”.
For the molecule B14, the EC50 stood at 0.17 nM.
In the case of B15, the binding result is on record as “no binding”.
Still for that read-out and setting: the result for B16 reads “no binding”; that for B17, “no binding”.
In the case of B18, the binding result was “no binding”.

The target of another experiment is T2, human LILRB1 on CHOK1 cells. Briefly: cell-based RBA (FACS): blocking of HLA-G binding to CHOK1-hLILRB1 cells.
Consider B4, for which the EC50 turned out to be 0.69 nM and the “Top Inhibition (%)” value amounted to 99.6%.
Taken in the same sequence, the figures for B5 were 0.7 nM and 95.6%.
As for B6, the EC50 turned out to be 2.93 nM and the “Top Inhibition (%)” value was 93.3%.
The matching figures for B7: 0.9 nM and 98.7%.
On to B8, for which it took 1.26 nM to reach a half-maximal effect (EC50) and the “Top Inhibition (%)” value was 92.6%.
Taken in the same sequence, the figures for B9 were 2.25 nM and 89.7%.
With B10, the EC50 was determined as 1.67 nM and the “Top Inhibition (%)” value worked out at 90%.
Turning to B11, a half-maximal response (EC50) required 1 nM and the “Top Inhibition (%)” value came out at 86.7%.
For the molecule B12, the EC50 is 1.59 nM and the “Top Inhibition (%)” value is 99%.
Taken in the same sequence, the figures for B13 were 4.5 nM and 62.2%.
Regarding B14, the EC50 was 0.68 nM and the “Top Inhibition (%)” value is 95.7%.
For the molecule B15, the midpoint of the response, the EC50, lay at 3.69 nM and the “Top Inhibition (%)” value worked out at 21.7%.
Taken in the same sequence, the figures for B16 were 2.01 nM and 75.7%.
For the molecule B17, the EC50 came out at 2.32 nM and the “Top Inhibition (%)” value worked out at 91.4%.
In the case of B18, it took 1.38 nM to reach a half-maximal effect (EC50) and the “Top Inhibition (%)” value was determined as 92.7%.
